Source: publication PMC6707828 (Biochemistry, 2018)
Where a chain is given by its changes, count along the chain named.

Experiments:
SufS (alone) = SufS (alone) (Escherichia coli, UniProt P77444); conditions: covalent (Schiff base with K226)
[1] = target: SufS (first binding site) (Escherichia coli) (UniProt P77444); assay: ITC; conditions: cited from earlier work
[2] = target: SufS (second binding site) (Escherichia coli) (UniProt P77444); assay: ITC; conditions: cited from earlier work
SEC = target: the molecule itself; assay: SEC

Molecule: Cc1ncc(COP(=O)(O)O)c(C=O)c1O [PLP]
- UV-Vis of PLP liberated from purified enzyme (SufS (alone)): UV-Vis spectroscopic analysis of PLP liberated from wild-type and the variant enzymes

Molecule: SufE (from UniProt P76194)
- Kd [1]: 4 µM
- Kd [2]: 300 µM

B1: SufS E96A (enzyme, E. coli)
chain: MIFSVDKVRADFPVLSREVNGLPLAYLDSAASAQKPSQVIDAEAEFYRHGYAAVHRGIHTLSAQATEKMENVRKRASLFINARSAEELVFVRGTTAGINLVANSWGNSNVRAGDNIIISQMEHHANIVPWQMLCARVGAELRVIPLNPDGTLQLETLPTLFDEKTRLLAITHVSNVLGTENPLAEMITLAHQHGAKVLVDGAQAVMHHPVDVQALDCDFYVFSGHKLYGPTGIGILYVKEALLQEMPPWEGGGSMIATVSLSEGTTWTKAPWRFEAGTPNTGGIIGLGAALEYVSALGLNNIAEYEQNLMHYALSQLESVPDLTLYGPQNRLGVIAFNLGKHHAYDVGSFLDNYGIAVRTGHHCAMPLMAYYNVPAMCRASLAMYNTHEEVDRLVTGLQRIHRLLG
modifications: PLP cofactor (89-97% PLP incorporation)
- stoichiometry N (SEC): 2

B2: SufS E250A (enzyme, E. coli)
chain: B1 chain with A96E, E250A
modifications: PLP cofactor (89-97% PLP incorporation)
- stoichiometry N (SEC): 2
